In PMC4808055 (Nature cell biology, 2015):

Target: T1, yeast Twinfilin (Twf1), full-length (1-332) (yeast, UniProt P53250 1-332)
T1 sequence: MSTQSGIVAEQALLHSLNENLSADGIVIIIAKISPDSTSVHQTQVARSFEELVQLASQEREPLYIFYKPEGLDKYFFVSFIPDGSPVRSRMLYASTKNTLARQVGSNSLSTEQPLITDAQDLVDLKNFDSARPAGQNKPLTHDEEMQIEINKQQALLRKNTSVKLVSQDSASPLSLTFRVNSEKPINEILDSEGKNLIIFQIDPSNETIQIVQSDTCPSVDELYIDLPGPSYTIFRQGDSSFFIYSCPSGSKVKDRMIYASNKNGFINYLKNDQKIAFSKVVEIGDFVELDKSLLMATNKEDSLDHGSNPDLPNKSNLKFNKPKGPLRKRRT
Assay: negative-stain electron microscopy

B1: N-Srv2 (1-259) (domain or fragment)
chain: MPDSKYTMQGYNLVKLLKRLEEATARLEDVTIYQEGYIQNKLEASKNNKPSDSGADANTTNEPSAENAPEVEQDPKCITAFQSYIGENIDPLVELSGKIDTVVLDALQLLKGGFQSQLTFLRAAVRSRKPDYSSQTFADSLRPINENIIKLGQLKESNRQSKYFAYLSALSEGAPLFSWVAVDTPVSMVTDFKDAAQFWTNRILKEYRESDPNAVEWVKKFLASFDNLKAYIKEYHTTGVSWKKDGMDFADAMAQSTKN
Question: Does B1 bind?
Answer: Result: binds
